Source: article PMC2680354 (Molecular cell, 2008)

Target: Arp2/3 complex (UniProt P61158 1-418)
Test: fluorescence polarisation

B1: chemically crosslinked WASP VCA (xlWASP VCA) (other)
chain: GGRGALLDQIRQGIQLNKTPGAPESSALQPPPQSSEGLVGALMHVMQKRSRAIHSSDEGEDQAGDEDEDDEWDD
modifications: chemically crosslinked to the second copy (crosslinker and site not shown)
Kd: 70 nM

B2: cortactin NtA (peptide)
chain: MWKASAGHAVSITQDDGGADDWETDPDFVNDVSEKEQRWGAKTVQGSGHQEHINIHKLRENVFQEHQTLKEKELETGPKASHGY
Kd: 17 nM
